Laboratory results: the Human Domainome abundance scans (Beltran et al. 2025)
± gives the uncertainty stated by the source.

B1: Serine/threonine-protein kinase LATS1, residues 98 to 141; numbered along this chain, O95835 (parent)
chain: TSEVNPQMLQDLQAAGFDEDMVIQALQKTNNRSIEAAIEFISKM

Variants of: B1
Test: abundance fitness (aPCA) (normalised: wild type 0, dead -1); higher = more abundant; growth selection in yeast, the domain comes from the species named
Details: Homo sapiens

Abundance fitness of substitutions, site by site:
A14: V -0.308 ± 0.036, W -0.706 ± 0.071, Y -0.339 ± 0.12
A15: C -0.287 ± 0.06, D -0.358 ± 0.068, E -0.308 ± 0.073, F -0.3 ± 0.087, G -0.492 ± 0.033, H -0.36 ± 0.11, I -0.238 ± 0.054, K -0.046 ± 0.067, L -0.003 ± 0.038, M 0.103 ± 0.062, N -0.309 ± 0.073, P -0.954 ± 0.1, Q 0.042 ± 0.056, R 0.022 ± 0.04, S -0.309 ± 0.041, V -0.429 ± 0.039, W -0.442 ± 0.047, Y -0.181 ± 0.07
G16: A -0.725 ± 0.062, C -0.914 ± 0.11, D -0.5 ± 0.06, E -0.617 ± 0.055, H -0.275 ± 0.38, I -1.34 ± 0.22, K -1.03 ± 0.2, L -0.898 ± 0.1, M -0.962 ± 0.099, N -0.494 ± 0.17, P -0.687 ± 0.093, Q -0.953 ± 0.13, R -1.1 ± 0.072, S -0.88 ± 0.059, T -0.72 ± 0.073, V -1.11 ± 0.085
F17: A -0.449 ± 0.045, C -0.488 ± 0.07, E -0.272 ± 0.043, G -0.465 ± 0.036, I -0.399 ± 0.086, K -0.648 ± 0.11, L -0.342 ± 0.038, M -0.336 ± 0.061, N -0.116 ± 0.26, P -0.601 ± 0.058, Q -0.366 ± 0.049, R -0.648 ± 0.046, S -0.495 ± 0.038, T -0.609 ± 0.052, V -0.501 ± 0.04, W -0.198 ± 0.048
D18: A -0.032 ± 0.036, C -0.187 ± 0.23, E 0.036 ± 0.04, F -0.564 ± 0.37, G -0.169 ± 0.035, H -0.159 ± 0.1, K -0.117 ± 0.045, L -0.617 ± 0.057, M -0.59 ± 0.058, N -0.21 ± 0.059, P -0.113 ± 0.057, Q -0.077 ± 0.068, R -0.22 ± 0.036, S -0.169 ± 0.055, T -0.204 ± 0.047, V -0.597 ± 0.044, W -0.853 ± 0.12, Y -0.837 ± 0.11
E19: A -0.097 ± 0.039, C -0.218 ± 0.048, D -0.154 ± 0.041, F -0.31 ± 0.054, G -0.103 ± 0.035, K 0.08 ± 0.045, L -0.26 ± 0.041, M -0.228 ± 0.05, N -0.233 ± 0.05, P -0.104 ± 0.043, Q -0.012 ± 0.044, R 0.078 ± 0.033, S -0.035 ± 0.045, T 0.046 ± 0.042, V -0.17 ± 0.033, W -0.75 ± 0.065
D20: A -0.047 ± 0.044, C -0.208 ± 0.041, E 0.007 ± 0.045, G -0.081 ± 0.031, H -0.234 ± 0.082, I -0.384 ± 0.087, K 0 ± 0.088, L -0.288 ± 0.037, M -0.168 ± 0.046, N -0.06 ± 0.087, P -0.166 ± 0.055, Q -0.07 ± 0.075, R -0.142 ± 0.036, S -0.063 ± 0.044, T -0.059 ± 0.049, V -0.261 ± 0.043, W -0.268 ± 0.042, Y -0.535 ± 0.12
M21: A -0.019 ± 0.045, C -0.126 ± 0.063, D 0.023 ± 0.05, E 0.043 ± 0.044, F -0.291 ± 0.066, G -0.363 ± 0.036, H -0.294 ± 0.12, K -0.059 ± 0.062, L 0.032 ± 0.042, N -0.148 ± 0.071, P -0.491 ± 0.051, Q 0.077 ± 0.053, R -0.268 ± 0.039, S -0.038 ± 0.038, T 0.088 ± 0.053, V 0.059 ± 0.037, W -0.32 ± 0.044, Y -0.33 ± 0.072
V22: A 0.18 ± 0.037, C 0.11 ± 0.073, E -0.355 ± 0.052, F -0.807 ± 0.17, G -0.008 ± 0.033, H -0.618 ± 0.12, L -0.538 ± 0.052, M -0.674 ± 0.066, N -0.448 ± 0.092, P -0.47 ± 0.05, Q -0.48 ± 0.065, R -0.623 ± 0.051, S 0.183 ± 0.041, T -0.262 ± 0.048, W -0.796 ± 0.065, Y -0.824 ± 0.14
I23: A -0.115 ± 0.043, D -0.283 ± 0.081, F -0.261 ± 0.16, G -0.322 ± 0.034, H -0.314 ± 0.064, K 0.041 ± 0.049, L -0.188 ± 0.044, M -0.055 ± 0.045, N -0.104 ± 0.064, P -0.591 ± 0.095, Q -0.158 ± 0.049, R 0.024 ± 0.034, S -0.183 ± 0.038, T -0.041 ± 0.045, V 0.039 ± 0.037, W -0.373 ± 0.045, Y -0.211 ± 0.064
Q24: A -0.066 ± 0.034, C -0.043 ± 0.042, D -0.005 ± 0.05, E 0.083 ± 0.038, F 0.019 ± 0.13, H 0.055 ± 0.048, I -0.015 ± 0.083, K 0.035 ± 0.06, L 0.013 ± 0.036, M -0.028 ± 0.037, N -0.146 ± 0.072, P -0.323 ± 0.048, R -0.103 ± 0.033, S -0.196 ± 0.043, T 0.009 ± 0.044, V -0.033 ± 0.033, Y -0.222 ± 0.13
A25: D -0.541 ± 0.088, E -0.668 ± 0.06, G -0.443 ± 0.033, H -0.937 ± 0.21, I -0.631 ± 0.24, K -0.684 ± 0.083, L -0.802 ± 0.057, M -0.887 ± 0.1, N -0.622 ± 0.13, P -0.415 ± 0.056, Q -0.697 ± 0.088, R -0.768 ± 0.046, S -0.295 ± 0.035, T -0.741 ± 0.058, V -0.68 ± 0.05, W -0.728 ± 0.042, Y -0.554 ± 0.067
L26: A -0.523 ± 0.037, D -0.354 ± 0.059, E -0.263 ± 0.041, F -0.54 ± 0.096, G -0.358 ± 0.032, H -0.111 ± 0.16, I -0.292 ± 0.074, K -0.424 ± 0.069, M -0.559 ± 0.072, N -0.377 ± 0.06, P -0.341 ± 0.052, Q -0.412 ± 0.05, V -0.571 ± 0.044, W -0.683 ± 0.045
Q27: A -0.125 ± 0.037, C -0.273 ± 0.042, D -0.151 ± 0.065, E -0.041 ± 0.042, G -0.292 ± 0.031, H -0.269 ± 0.092, K 0.068 ± 0.044, L -0.068 ± 0.04, M -0.123 ± 0.044, P -0.597 ± 0.055, R -0.042 ± 0.031, S -0.071 ± 0.036, T -0.007 ± 0.044, V -0.043 ± 0.039, W -0.57 ± 0.042
K28: A 0.12 ± 0.038, C -0.129 ± 0.05, D -0.257 ± 0.063, E 0.034 ± 0.039, F -0.148 ± 0.05, G -0.08 ± 0.031, H 0.073 ± 0.054, I -0.445 ± 0.13, L -0.366 ± 0.038, M -0.037 ± 0.046, P -0.74 ± 0.072, Q -0.024 ± 0.057, R -0.048 ± 0.035, S -0.041 ± 0.035, T -0.259 ± 0.067, V -0.163 ± 0.036, W -0.444 ± 0.035, Y -0.027 ± 0.075
T29: A -0.646 ± 0.047, C -0.375 ± 0.043, D -0.902 ± 0.29, E -0.529 ± 0.046, F -1.09 ± 0.16, G -0.527 ± 0.033, I -0.589 ± 0.073, K -0.806 ± 0.1, L -0.954 ± 0.071, M -0.919 ± 0.1, N -0.414 ± 0.1, P -0.524 ± 0.1, Q -0.563 ± 0.071, R -0.715 ± 0.041, S -0.463 ± 0.04, V -0.191 ± 0.039, W -1.09 ± 0.083
N30: A -0.193 ± 0.033, D -0.093 ± 0.055, E 0.015 ± 0.04, F -1.05 ± 0.15, G 0.045 ± 0.032, H -0.206 ± 0.24, K -0.021 ± 0.042, L -1.14 ± 0.097, M -0.553 ± 0.065, P -0.529 ± 0.061, Q -0.055 ± 0.047, R -0.103 ± 0.033, S -0.107 ± 0.042, T -0.533 ± 0.055, V -1.1 ± 0.069, W -1.07 ± 0.086
N31: A -0.416 ± 0.035, C -0.139 ± 0.041, D -0.506 ± 0.081, E -0.253 ± 0.042, G -0.155 ± 0.03, I -0.577 ± 0.21, K -0.699 ± 0.12, L -0.75 ± 0.049, M -0.484 ± 0.063, P -0.459 ± 0.048, Q -0.63 ± 0.089, R -0.845 ± 0.046, S 0.049 ± 0.038, T -0.645 ± 0.069, W -0.557 ± 0.046
R32: A 0.089 ± 0.039, C 0.007 ± 0.068, D -0.26 ± 0.042, E 0.095 ± 0.042, G -0.185 ± 0.032, H 0.045 ± 0.078, K 0.238 ± 0.1, M -0.107 ± 0.05, P -0.434 ± 0.043, T -0.004 ± 0.042, V 0.017 ± 0.036, W -0.484 ± 0.043, Y -0.222 ± 0.18
S33: A -0.797 ± 0.055, C -0.467 ± 0.09, D -0.4 ± 0.05, E -0.665 ± 0.086, F -0.628 ± 0.16, G -0.136 ± 0.035, H -0.934 ± 0.11, K -0.528 ± 0.097, L -1.25 ± 0.092, M -0.96 ± 0.083, N -0.56 ± 0.3, P -0.627 ± 0.06, Q -1.02 ± 0.11, R -0.907 ± 0.058, T -0.555 ± 0.063, V -1.29 ± 0.13, W -1.12 ± 0.11, Y -0.735 ± 0.14
I34: A -0.043 ± 0.034, C -0.02 ± 0.043, D -0.257 ± 0.071, E -0.068 ± 0.045, F -0.192 ± 0.074, G -0.266 ± 0.033, H -0.077 ± 0.06, L -0.005 ± 0.037, M 0.04 ± 0.037, N -0.123 ± 0.22, P -0.051 ± 0.045, Q -0.09 ± 0.042, S -0.189 ± 0.044, T 0.046 ± 0.044, V 0.026 ± 0.034, W -0.505 ± 0.06, Y -0.468 ± 0.15
E35: C -0.485 ± 0.066
